*1 amine or outer side, *2 acyl side, *3 side chain or, on linkers, in order; H or OH if unused. Where a SMILES comes first, the peptide text is derived from it. Bridges are numbered along the chain shown (N, C = ends). [ ]: non-standard residue; d: D form. The star is where a group is joined. X1 = COc1cc2cc(c1Cl)N(C)C(=O)C[C@H](OC(=O)[C@H](C)N(C)C(=O)CCSSC(C)CCC(=O)*)[C@]1(C)O[C@H]1[C@H](C)[C@@H]1C[C@@](O)(NC(=O)O1)[C@H](OC)/C=C/C=C(\C)C2; 1Nal = N[C@@H](Cc1cccc2ccccc12)C(=O)O; TBMB = c1c(C[*:1])cc(C[*:3])cc1C[*:2]; Tle = CC(C)(C)[C@H](N)C(=O)O; βAla = NCCC(=O)O; Sar = CNCC(=O)O
Tested on: EBC-1 xenograft
Assay: Efficacy of BT1718 in EBC-1 xenograft model (Example 1)
Assay type: in vivo, Mus Musculus
Set-up: key to Best response at 10 mg/kg: CR complete response; PR partial response
Details: for Tumor Size (mm^3): Mean ± SEM
Protocol: The objective of this study was to evaluate the anti-tumor efficacy of BT1718 in EBC-1 xenograft model in female BALB/c nude mice.
The EBC-1 tumor cells were maintained in vitro as a monolayer culture in EMEM medium supplemented with 10% heat inactivated fetal bovine serum at 37° C. in an atmosphere of 5% CO2 in air. The tumor cells will be routinely subcultured twice weekly by trypsin-EDTA treatment. The cells growing in an exponential growth phase will be harvested and counted for tumor inoculation.
Each mouse was inoculated subcutaneously at the right flank with EBC-1 tumor cells (10×10^6) in 0.2 ml of PBS for tumor development. The animals were randomized and treatment was started when the average tumor volume reaches approximately 165 mm^3 for the efficacy study.
All the procedures related to animal handling, care and the treatment in the study were performed according to the guidelines of the Association for Assessment and Accreditation of Laboratory Animal Care (AAALAC). At the time of routine monitoring, the animals were daily checked for any effects of tumor growth and treatments on normal behavior such as mobility, food and water consumption (by looking only), body weight gain/loss (body weights were measured every day), eye/hair matting and any other abnormal effect as stated in the protocol. Death and observed clinical signs were recorded on the basis of the numbers of animals within each subset.
The major endpoint was to see if the tumor growth could be delayed or mice could be cured. Tumor size was measured three times weekly in two dimensions using a caliper, and the volume was expressed in mm^3 using the formula: V=0.5 a×b^2 where a and b are the long and short diameters of the tumor, respectively. The tumor size was then used for calculations of T/C value. The T/C value (in percent) is an indication of antitumor effectiveness; T and C are the mean volumes of the treated and control groups, respectively, on a given day.
TGI was calculated for each group using the formula: TGI (%)=[1−(Ti−T0)/(Vi−V0)]×100; Ti is the average tumor volume of a treatment group on a given day, T0 is the average tumor volume of the treatment group on the day of treatment start, Vi is the average tumor volume of the vehicle control group on the same day with Ti, and V0 is the average tumor volume of the vehicle group on the day of treatment start.
Summary statistics, including mean and the standard error of the mean (SEM), are provided for the tumor volume of each group at each time point.
Statistical analysis of difference in tumor volume among the groups was conducted on the data obtained at the best therapeutic time point after the final dose.
A one-way ANOVA was performed to compare tumor volume among groups, and when a significant F-statistics (a ratio of treatment variance to the error variance) was obtained, comparisons between groups were carried out with Games-Howell test. All data were analyzed using Prism. P<0.05 was considered to be statistically significant.

COc1cc2cc(c1Cl)N(C)C(=O)C[C@H](OC(=O)[C@H](C)N(C)C(=O)CCSSC(C)CCC(=O)NCCC(=O)N(C)CC(=O)N(C)CC(=O)N(C)CC(=O)N(C)CC(=O)N(C)CC(=O)N(C)CC(=O)N(C)CC(=O)N(C)CC(=O)N(C)CC(=O)N(C)CC(=O)N[C@@H](C)C(=O)N[C@H]1CSCc3cc4cc(c3)CSC[C@H](NC(=O)[C@@H](C)NC(=O)[C@H](Cc3cccc5ccccc35)NC(=O)[C@H](CCC(=O)O)NC(=O)[C@H](CC(N)=O)NC(=O)[C@@H](C)NC1=O)C(=O)N[C@@H](CCC(=O)O)C(=O)N[C@@H](CC(=O)O)C(=O)N[C@@H](Cc1ccccc1)C(=O)N[C@@H](Cc1ccc(O)cc1)C(=O)N[C@@H](CC(=O)O)C(=O)N[C@@H](C(C)(C)C)C(=O)N[C@H](C(N)=O)CSC4)[C@]1(C)O[C@H]1[C@H](C)[C@@H]1C[C@@](O)(NC(=O)O1)[C@H](OC)/C=C/C=C(\C)C2 (some centres unmarked) [BT1718] ({X1-βAla}-[Sar][Sar][Sar][Sar][Sar][Sar][Sar][Sar][Sar][Sar]AC[dA]NE[1Nal][dA]CEDFYD[Tle]C-NH2; linker 12-18-25 via TBMB (inferred))
Tumor Volume (4.5 mpk biw, day 21): 526 ± 95 mm^3
Body Weight (9 mpk qw, day 0): 24.0 ± 0.4 g
Body Weight (% Change) (9 mpk qw, day 0): 0.0%
Tumor Volume (9 mpk qw, day 0): 163 ± 19 mm^3
Body Weight (9 mpk qw, day 2): 23.2 ± 0.6 g
Body Weight (% Change) (9 mpk qw, day 2): −3.4 ± 0.9%
Tumor Volume (9 mpk qw, day 2): 182 ± 25 mm^3
Body Weight (9 mpk qw, day 4): 23.8 ± 0.5 g
Body Weight (% Change) (9 mpk qw, day 4): −0.7 ± 1.8%
Tumor Volume (9 mpk qw, day 4): 200 ± 28 mm^3
Body Weight (9 mpk qw, day 7): 24.7 ± 0.2 g
Body Weight (% Change) (9 mpk qw, day 7): 2.8 ± 0.6%
Tumor Volume (9 mpk qw, day 7): 202 ± 64 mm^3
Body Weight (9 mpk qw, day 9): 23.8 ± 0.5 g
Body Weight (% Change) (9 mpk qw, day 9): −1.1 ± 0.7%
Tumor Volume (9 mpk qw, day 9): 187 ± 70 mm^3
Body Weight (9 mpk qw, day 11): 24.7 ± 0.4 g
Body Weight (% Change) (9 mpk qw, day 11): 2.8 ± 0.9%
Tumor Volume (9 mpk qw, day 11): 164 ± 61 mm^3
Body Weight (9 mpk qw, day 14): 24.9 ± 0.4 g
Body Weight (% Change) (9 mpk qw, day 14): 3.7 ± 0.8%
T/C (%) (9 mpk qw, day 14): 12%
TGI (%) (9 mpk qw, day 14): 101%
Tumor Volume (9 mpk qw, day 14): 154 ± 72 mm^3
Tumor Size (mm^3) (9 mpk qw, day 14): 154 ± 72 mm^3
Body Weight (9 mpk qw, day 16): 24.6 ± 0.2 g
Body Weight (% Change) (9 mpk qw, day 16): 2.3 ± 0.6%
Tumor Volume (9 mpk qw, day 16): 186 ± 83 mm^3
Body Weight (9 mpk qw, day 18): 24.8 ± 0.2 g
Body Weight (% Change) (9 mpk qw, day 18): 3.2 ± 0.8%
Tumor Volume (9 mpk qw, day 18): 245 ± 119 mm^3
Body Weight (9 mpk qw, day 21): 24.8 ± 0.2 g
Body Weight (% Change) (9 mpk qw, day 21): 3.1 ± 1.0%
Tumor Volume (9 mpk qw, day 21): 320 ± 153 mm^3
Body Weight (10 mpk tiw, day 0): 24.2 ± 0.4 g
Body Weight (% Change) (10 mpk tiw, day 0): 0.0%
Tumor Volume (10 mpk tiw, day 0): 167 ± 11 mm^3
Body Weight (10 mpk tiw, day 2): 23.2 ± 0.6 g
Body Weight (% Change) (10 mpk tiw, day 2): −4.0 ± 1.3%
Tumor Volume (10 mpk tiw, day 2): 216 ± 21 mm^3
Body Weight (10 mpk tiw, day 4): 23.7 ± 0.5 g
Body Weight (% Change) (10 mpk tiw, day 4): −2.1 ± 0.9%
Tumor Volume (10 mpk tiw, day 4): 205 ± 24 mm^3
Body Weight (10 mpk tiw, day 7): 22.7 ± 0.6 g
Body Weight (% Change) (10 mpk tiw, day 7): −6.2 ± 0.8%
Tumor Volume (10 mpk tiw, day 7): 114 ± 10 mm^3
Body Weight (10 mpk tiw, day 9): 23.1 ± 0.4 g
Body Weight (% Change) (10 mpk tiw, day 9): −4.4 ± 0.3%
Tumor Volume (10 mpk tiw, day 9): 45 ± 4 mm^3
Body Weight (10 mpk tiw, day 11): 22.9 ± 0.6 g
Body Weight (% Change) (10 mpk tiw, day 11): −5.2 ± 1.1%
Tumor Volume (10 mpk tiw, day 11): 16 ± 3 mm^3
Body Weight (10 mpk tiw, day 14): 23.8 ± 0.5 g
Body Weight (% Change) (10 mpk tiw, day 14): −1.6%
T/C (%) (10 mpk tiw, day 14): 0%
TGI (%) (10 mpk tiw, day 14): 115%
Tumor Volume (10 mpk tiw, day 14): 0 ± 0 mm^3
Tumor Size (mm^3) (10 mpk tiw, day 14): 0 ± 0 mm^3
Body Weight (15 mpk biw, day 0): 23.7 ± 0.3 g
Body Weight (% Change) (15 mpk biw, day 0): 0.0%
Tumor Volume (15 mpk biw, day 0): 161 ± 12 mm^3
Body Weight (15 mpk biw, day 2): 22.7 ± 0.4 g
Body Weight (% Change) (15 mpk biw, day 2): −4.2 ± 0.6%
Tumor Volume (15 mpk biw, day 2): 173 ± 11 mm^3
Body Weight (15 mpk biw, day 4): 22.6 ± 0.3 g
Body Weight (% Change) (15 mpk biw, day 4): −4.5 ± 0.3%
Tumor Volume (15 mpk biw, day 4): 136 ± 10 mm^3
Body Weight (15 mpk biw, day 7): 22.8 ± 0.4 g
Body Weight (% Change) (15 mpk biw, day 7): −3.7 ± 2.5%
Tumor Volume (15 mpk biw, day 7): 79 ± 1 mm^3
Body Weight (15 mpk biw, day 9): 22.7 ± 0.2 g
Body Weight (% Change) (15 mpk biw, day 9): −4.3 ± 1.7%
Tumor Volume (15 mpk biw, day 9): 36 ± 2 mm^3
Body Weight (15 mpk biw, day 11): 23.4 ± 0.3 g
Body Weight (% Change) (15 mpk biw, day 11): −1.2 ± 0.3%
Tumor Volume (15 mpk biw, day 11): 12 ± 0 mm^3
Body Weight (15 mpk biw, day 14): 23.7 ± 0.5 g
Body Weight (% Change) (15 mpk biw, day 14): 0.2 ± 1.4%
T/C (%) (15 mpk biw, day 14): 0%
TGI (%) (15 mpk biw, day 14): 115%
Tumor Volume (15 mpk biw, day 14): 0 ± 0 mm^3
Tumor Size (mm^3) (15 mpk biw, day 14): 0 ± 0 mm^3
Body Weight (30 mpk qw, day 0): 24.6 ± 0.6 g
Body Weight (% Change) (30 mpk qw, day 0): 0.0%
Tumor Volume (30 mpk qw, day 0): 166 ± 10 mm^3
Body Weight (30 mpk qw, day 2): 20.9 ± 0.3 g
Body Weight (% Change) (30 mpk qw, day 2): −14.9 ± 2.2%
Tumor Volume (30 mpk qw, day 2): 166 ± 22 mm^3
Body Weight (30 mpk qw, day 4): 21.9 ± 1.0 g
Body Weight (% Change) (30 mpk qw, day 4): −10.8 ± 4.3%
Tumor Volume (30 mpk qw, day 4): 128 ± 6 mm^3
Body Weight (30 mpk qw, day 7): 23.1 ± 1.0 g
Body Weight (% Change) (30 mpk qw, day 7): −6.2 ± 3.5%
Tumor Volume (30 mpk qw, day 7): 89 ± 4 mm^3
Body Weight (30 mpk qw, day 9): 20.8 ± 1.0 g
Body Weight (% Change) (30 mpk qw, day 9): −15.5 ± 3.4%
Tumor Volume (30 mpk qw, day 9): 47 ± 3 mm^3
Body Weight (30 mpk qw, day 11): 22.1 ± 0.9 g
Body Weight (% Change) (30 mpk qw, day 11): −10.3 ± 3.3%
Tumor Volume (30 mpk qw, day 11): 18 ± 2 mm^3
Body Weight (30 mpk qw, day 14): 24.0 ± 1.0 g
Body Weight (% Change) (30 mpk qw, day 14): −2.4 ± 3.2%
T/C (%) (30 mpk qw, day 14): 0%
TGI (%) (30 mpk qw, day 14): 115%
Tumor Volume (30 mpk qw, day 14): 0 ± 0 mm^3
Tumor Size (mm^3) (30 mpk qw, day 14): 0 ± 0 mm^3
Best response at 10 mg/kg (EBC-1, 10 mg/kg): CR
Minimally Effective Dose IV BIW (EBC-1, dose leading to tumor-stasis): <10 mg/kg
body weight effect (other groups (all except 30 mg/kg qw)): maintained their bodyweight well
treatment effect (same total dose, schedules from daily to a single weekly dose): Effective treatment

Source: US10441663B2, “Methods for treating cancer” (Bicycle Therapeutics Limited, priority 2016, dated 2019)
